Test: soluble on expression in E. coli; label from the status in PepcDB or PDB records

## GSHVSKREDGRLDHELRPVIITRGFTENPAGSVLIEFGHTKVLCTASVTEGVPRWRKATGLGWLTAEYAMLPSATHSRSDRESVRGRLSGRTQEISRLIGRSLRACIDLAALGENTIAIDCDVLQADGGTRTAAITGAYVALADAVTYLSAAGKLSDPRPLSCAIAAVSVGVVDGRIRVDLPYEEDSRAEVDMNVVATDTGTLVEIQGTGEGATFARSTLDKLLDMALGACDTLFAAQRDALALPYPGVLPQGPPPPKAFGT
  soluble on expression in E. coli: soluble

## MRDNLVEQIISDVMNKQTDISPEAKTAANFAGCGITEFVGTALGHTIGLVIANVDNQLHEVMNIDKKYRSIGILGARTGAGPQIFAADEAIKATNSEIISIELARDTEGGGGHGCLIIFGASDVSDVRRAVEVALSEIERTMGDVYGSSAGHLEFQYTARASYALNKALGAPIGKSFGMTCASPAAIGLVIADAAAKSAVIDPVGYASPSQGTSFSNEVIFTFSGDSGAVRQAVIAAREVGLQLLSTLDPVEIKSTTTPYI
  soluble on expression in E. coli: soluble

## MRKRKPLDYYLSLKYPVLLVAEPEGGYTALHPDLEGCVSVGETPEEALANLEEARRLWLEAAYEHGDEIPLPSTEREYSGRVLVRMPKSLHRRLDEEAKAEGVSLNQYIVSLPAERSSLRALKRELTRTGRAAEAPDSWEWGTSSGGGIWTGVLA
  soluble on expression in E. coli: soluble

## MVSKELVVCHLYGNLLNTYGDNGNLLMLKYLTEKMGVTFRSEIISIYEPFDPEKYDLVFVGGGQDFEQLIISEDIQNKKEALTSYIENDGVLLAICGGYQLLGHYYVGAQGEKIKGIGALDHYTLSQDNNRFIGDIEIYNEEFDETYYGFENHNGMTFLGEGERPLGTVKQGKGNNGQDNGEGVVYKNVFGSYFHGPILARNKNLGIRLIRTALEKKYGEPIAIPETLYK
  soluble on expression in E. coli: not soluble

## MSLSVQREDVDIKLIAIDMDGTLLNDEQLISDENRKAIREAEDKGVYVVISTGRTLMTCRELAESLKLSSFLITANGSEIWDSNFNLVERKLLHTDHIQMMWDLRNKHNTNFWASTVNKVWRGEFPENITDHEWLKFGFDIEDDDIRNEVLEELRKTKSSEITNSSPTNIEVNALGINKAAAPCQGYGKLGFTMENVMAMGDSLNDIAMIKEAGLGVAMGNAQDIVKETADYITDTNIEDGVAKAIRHWVLEGHHHHHH
  soluble on expression in E. coli: soluble

## MSTWRDSLLPASFRGVGFFIEKAVVPVGRKGQLHEFPQRDEPYFESLGKQAQVHTLTAFIVGRDCFEKRDNLLQALEKDGAGELVHPWLGRMQVQV
  soluble on expression in E. coli: not soluble

## SYYHHHHHHHEGVRTMEEECRVLSIQSHVIRGYVGNRAATFPLQVLGFEIDAVNSVQFSNHTGYAHWKGQVLNSDELQELYEGLRLNNMNKYDYVLTGYTRDKSFLAMVVDIVQELKQQNPRLVYVCDPVLGDKWDGEGSMYVPEDLLPVYKEKVVPLADIITPNQFEAELLSGRKIHSQEEALRVMDMLHSMGPDTVVITSSDLPSPQGSNYLIVLGSQRRRNPAGSVVMERIRMDIRKVDAVFVGTGDLFAAMLLAWTHKHPNNLKVACEKTVSTLHHVLQRTIQCAKAQAGEGVRPSPMQLELRMVQSKRDIEDPEIVVQATVL
  soluble on expression in E. coli: soluble

## MDIHSHQQALDAYENVLEHLREKHIRITETRKAIISYMIQSTEHPSADKIYRDLQPNFPNMSLATVYNNLKVLVDEGFVSELKISNDLTTYYDFMGHQHVNVVCEICGKIADFMDVDVMDIAKEAHEQTGYKVTRIPVIAYGICPDCQAKDQPDF
  soluble on expression in E. coli: not soluble

## RKEDHARLRALNGLLYKALTDLLCTPEVSQELYDLNVELSKVSLTPDFSACRAYWKTTLSAEQNAHMEAVLQRSAAHMRHLLMSQQTLRNVPPIVFVQDKGNAALAELDQLLAVAD
  soluble on expression in E. coli: soluble

## MRRESYRERALVVRSYDFGEADRIIVLFTRGRGIVRGVAKGVRRAKSRFGSRLQPFVELDVQLYRGRNLESITAADTVAYFGAKIIDDVTRFSAASSILEGVEKLAVGDEPRLFDLTVTALKNMQSCAHPVAEVDTFLLQGMNIAGWAPSLFDCAQCGASGPHHAFHPSPGGAVCVHCRPLGAQEVDPETLHMMWLMAQGHRDAVAEIGTPERYQQAHALIRSHLSWHVERGLASLNVLDQV
  soluble on expression in E. coli: not soluble

## DDDLEVKEENGVWVLNDGNFDNFVADKDTVLLEFYAPWCGHCKQFAPEYEKIASTLKDNDPPIAVAKIDATSASMLASKFDVSGYPTIKILKKGQAVDYDGSRTQEEIVAKVREVSQPDWTPPPEVT
  soluble on expression in E. coli: soluble

## MPGDSMCQAMAGNERHMLTSVKTGTYTMPVLHNRVSNEELKARMLAETEPRTTVSFYKYFTIDDPKAFRDRLYIQLEQYKVFGRIYIAAEGINAQISVPNNQFDAFKTGLFSAHPALDQIRLNIALEDDGKSFWVLRMKVRERIVADGIDDPTFNPANVGQYLKADRVNAMADDPDTVFVDMRNHYEYEVGHFQNALEVPSDTFREQLPMAVDMLDDIRDKNIVMYCTGGIRCEKASAYMLHHGFKNVYHVEGGIIEYARQAKAQGLPLKFIGKNFVFDERMGERISDDVIAHCHQCGASCDSHTNCRNEGCHLLFIQCPSCAAKYEGCCSTQCQDEMKLPLEEQRAIRSGRENGMKIFNKSKGLLQSTLHIPAPAAKDNAELEHHHHHH
  soluble on expression in E. coli: not soluble

## MSTPRTVLVVGGGAAGNAVTILLRRAGLTVDLVEAKDDWNATAGSGITLQGNALRVLRELGVWEQVEASGFGFGSVGITTPDGTVLHVQDDLRTGGDDLPATVGMQRPRLQQILIEAVRASGASVRLGTTAEILDQDSDGVHVRLSDGSEHRYDLVVAADGLGSATRAAIGITDKPEPTGMAIWRIAAPRPAGLTRTDLAYGGPAHIAGYCPTGETTLYAYVVEANRDRAGIPPASYADEMRGLTRHYGGFWPDITEHITDPAKVNYTWFDRLLVEGSWHRGRVVLVGDAAHCCPPTLAQGAALSLEDAWVLAQMLTGSDVWDDALFQAYYERRIARVRPVVAASVQIGQWQLDGVRDADLPGLMGRTMTMLRELPLEHHHHHH
  soluble on expression in E. coli: not soluble

## MSLTFIRKVETWITNSKQTEDGWSQIKPFIFLKLTNSDGFEGWGEAFSLPAREKGIVEIIHNLMSSLSYVKDITPDRFYTESNLIADGHRGIDFSAATSAIEMSLWDIEGKKEKKPLYKILSKDYREKVPVYATIWSEDFKNDENLSSRCIEILSDGYGGIKIYPLQNRTVEQAAKCVSKIRDVLGYKIPLMLDLACPKDTNISLKLASLVEEFRPYWFEEPVDGEATRALKDIREKTSLRIVSGEKQCGLNHFIETLALDAVDIFNPDISGVGGIIDMIKIIKLSHEKKVTVSPHCWNSMSIAASAMVHVCMSFTNTEMAEFFPEYIPYSLKFSNQNYEIKDGFVKIEDNEGLGINIDTKLLMEDTSSYRETELTEGHHHHHH
  soluble on expression in E. coli: soluble

## MTKITLSDLPLREELRGEHAYGAPQLNVDIRLNTNENPYPPSEALVADLVATVDKIATELNRYPERDAVELRDELAAYITKQTGVAVTRDNLWAANGSNEILQQLLQAFGGPGRTALGFQPSYSMHPILAKGTHTEFIAVSRGADFRIDMDVALEEIRAKQPDIVFVTTPNNPTGDVTSLDDVERIINVAPGIVIVDEAYAEFSPSPSATTLLEKYPTKLVVSRTMSKAFDFAGGRLGYFVANPAFIDAVMLVRLPYHLSALSQAAAIVALRHSADTLGTVEKLSVERVRVAARLEELGYAVVPSESNFVFFGDFSDQHAAWQAFLDRGVLIRDVGIAGHLRTTIGVPEENDAFLDAAAEIIKLNLSAWSHPQFEK
  soluble on expression in E. coli: soluble

## MTEPDVAGAPASKPEPASTGAASAAQLSGYSRVLLKLGGEMFGGGQVGLDPDVVAQVARQIADVVRGGVQIAVVIGGGNFFRGAQLQQLGMERTRSDYMGMLGTVMNSLALQDFLEKEGIVTRVQTAITMGQVAEPYLPLRAVRHLEKGRVVIFGAGMGLPYFSTDTTAAQRALEIGADVVLMAKAVDGVFAEDPRVNPEAELLTAVSHREVLDRGLRVADATAFSLCMDNGMPILVFNLLTDGNIARAVRGEKIGTLVTT
  soluble on expression in E. coli: soluble

## MTYIIREMKQEDIHAVQSVAKIAWHDTYEGIIPREIQDSFLDEAYSDEKMKYRLKNTHLFVAEEEGEVIGFANFSPVRLQNEAELGAIYLLPDQQGKGIGSALLQRGIKALNGIRKLYIHVEAANEKGKRFYEAKGFAELEQFEEDFEGHMMQTVRMVLYV
  soluble on expression in E. coli: not soluble

## MADKSADIQTPAPAANTSISATQQPAIQQPNVSGTVWIRQKVALPPDAVLTVTLSDASLADAPSKVLAQKAVRTEGKQSPFSFVLSFNPADVQPNARILLSAAITVNDKLVFITDTVQPVINQGGTKADLTLVPVQQTAVPVQASGGATTTVPSTSPTQVNPSSAVPAPTQYLEHHHHHH
  soluble on expression in E. coli: soluble

## MASKIEPGSPQPIYLDVQATAPMDPRVVDAMLPYMINDFGNPHSRTHSYGWKAEEGVEQAREHVANLIKADPRDIIFTSGATESNNLAIKGVAKFRKQSGKNHIITLQTEHKCVLDSCRYLENEGFKVTYLPVDKGGMVDMEQLTQSITAETCLVSIMFVNNEIGVMQPIKQIGELCRSKGVYFHTDAAQATGKVPIDVNEMKIDLMSISAHKIYGPKGAGALYVRRRPRVRIEAQMSGGGQERGLRSGTVAAPLCIGLGEAAKIADKEMAMDKAHVERLSQMLINGISDKLPHIIRNGDARHAYPGCVNLSFAYVEGESLLMALKSIALSSGSACTSASLEPSYVLRAIGSEEDLAHSSIRFGLGRFTTDEEVKHTIDLCIRETNRLRDLSPLWEMVQEGIDLKSIQWTQH
  soluble on expression in E. coli: not soluble

## MKPRPQSDAVDNEGPTPLSKGRRHLAMRLDDAWLGFQTRLAIRRGRVETVIPYTGYGSTSWVRVLARIVRSDPRDAAGHTNPLQESMRGWRNFTSAPVAHASVQVTIDGTVHDVVADRGGVVDARIPVALDAGWHTITLRSGESETVEAPVEIVADDAVFGVVSDIDDTVMVTALPRPFLAAWNTFVLNEHARTPTPGMAVLYERIARTAPSAPVLYLSTGAWNVAPTLSRFLSRNLYPAGPKLLTDWGPTPDRWFRSGQEHKRTSLERLAEEFPNIKWLLVGDDGQHDEAIYSEFAQRHPASVRAIAIRQLSAGEAVLAGGRSKSGGQPTPGVPWIYAPDGAGMSAQLEELGIIRNEVRSADDPEEGEVTTGSDLEHHHHHH
  soluble on expression in E. coli: soluble

## MSGSSHYPVANWNLDGIVSGLRGARQEWRGPRGRLREESESGVREFPSQESLRDIMRQLFGALFPMRLGPIDLREEVEDFYVGHTIGAALDALLHQVCLELQHLGRDDPQPYGQVLERAVDIVRRFGAELPAVRKALDLDVTAAYQGDPAARSVDEVLLCYPGVTAMIHHRLANVLYRLGAPMLARIVAEIAHSDTGIDIHPGATIGRSFFIDHGTGVVIGETAIIGERVRLYQMVTLGAKRFPPGENGELKKGLPRHPIIEDDVVIYAGATILGRITIGQGSTIGGNVWLTHSVPPNSTVTQAGAINDMPDCGLGGLEHHHHHH
  soluble on expression in E. coli: not soluble

## MGSDKIHHHHHHMSRILNTEIIIPIIEKLVKKACYELDDNLMCSFRKAYDKEESKIGKETIKILIDNGEYAKKEQLACCHDTGTCIVIMEIGQHVCWEGKPLKDQVNQGVRQGYENGYLRKSMVADPLERINTNDNTPAILHTEIVDGDRVTITVMPKGGGSENMGTFKTLLPGDGIDGIKDFVLETVRRVGGNPCPPYIIGIGVGGTMDHCSWMAKKALLRPLGEFNAKPLYAQLEAELLEAVNNTGIGPLGMGGRITALGVHVDYYPCHITALPVAINFQCNASRHASEII
  soluble on expression in E. coli: not soluble

## MGSDKIHHHHHHMEEKKALIIVDVQKAFDDKKWGERNNVKAEENISKILELWREKGWTVIYIQHTSDKPHSLFHPKNEGFAIKEIVKPMDEEVIITKTVNSSFIGTNLEEFLKLNEITTVVITGLTTPHCVSTTTRMSGNLGFDTYLISDATAAFGMRDQNDTYYDAATIHNISLATLHDEFATILTTDQLINDFIKTH
  soluble on expression in E. coli: not soluble
